Data: patent publication US20120114652A1

T1: mouse PAI-1 (mouse) (UniProt P22777)
T1 sequence: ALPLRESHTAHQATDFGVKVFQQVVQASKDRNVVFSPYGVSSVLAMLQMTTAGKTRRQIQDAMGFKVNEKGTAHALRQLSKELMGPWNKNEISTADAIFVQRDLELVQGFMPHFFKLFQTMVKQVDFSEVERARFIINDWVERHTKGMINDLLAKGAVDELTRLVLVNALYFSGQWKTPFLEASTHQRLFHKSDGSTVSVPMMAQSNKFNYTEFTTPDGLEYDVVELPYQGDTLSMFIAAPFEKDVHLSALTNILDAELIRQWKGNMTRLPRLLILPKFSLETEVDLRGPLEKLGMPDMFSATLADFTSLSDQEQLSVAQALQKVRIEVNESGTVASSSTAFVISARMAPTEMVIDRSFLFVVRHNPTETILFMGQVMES

T2: rat PAI-1 (rat) (UniProt P20961)
T2 sequence: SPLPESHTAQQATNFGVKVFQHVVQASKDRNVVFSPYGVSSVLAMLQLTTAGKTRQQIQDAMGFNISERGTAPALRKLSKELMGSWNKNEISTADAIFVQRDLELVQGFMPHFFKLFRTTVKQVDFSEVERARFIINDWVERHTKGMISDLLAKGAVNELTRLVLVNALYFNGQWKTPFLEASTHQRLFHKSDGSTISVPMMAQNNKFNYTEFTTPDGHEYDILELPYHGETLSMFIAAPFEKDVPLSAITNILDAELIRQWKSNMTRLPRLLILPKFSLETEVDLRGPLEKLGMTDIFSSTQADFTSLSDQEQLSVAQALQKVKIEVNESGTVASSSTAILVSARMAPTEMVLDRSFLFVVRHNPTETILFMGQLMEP

B1: mouse PAI-1 (protein)
chain: T1 sequence
B2: PICK167_A01 scFv (scFv)
scFv: QVQLQQSGAEVKKPGSSVKVSCKASGGTFSSYAISWVRQAPGQRLEWMGGIIPTFGTANYAQKFQGRVTITADESTSTAYMELSGLRSEDTAVYYCARERRQWLEGHFDYWGRGTPVTVSSGGGGSGGGGSGGGGSDIQMTQSPSFLSASIGDRVTITCRASEGIYHNLAWYQQKPGKAPKLLIYKASSLASGAPSRFSGSRSGTDFTLTISSLQPDDFATYYCQQYSNYPLTFGGGTKLEIKR
B3: rat PAI-1 (protein)
chain: T2 sequence

Tests used:
[1] = molecular target: Antibody 16, IgG1, not germlined; assay: competition binding assay: Antibody 16 IgG adsorbed to the plate, biotinylated active human PAI-1 at about its KD, dilution series of the unlabelled competitor (the varied molecule), detection with streptavidin-Europium
[2] = molecular target: cynomolgus PAI-1 (cynomolgus); assay: cell-based or functional assay
[3] = molecular target: human PAI-1, active, wild-type, non-glycosylated (E. coli-derived) (human) (UniProt P05121); assay: cell-based or functional assay
mouse PAI-1 (mouse) = molecular target: T1, mouse PAI-1 (mouse); assay: cell-based or functional assay
rat PAI-1 (rat) = molecular target: T2, rat PAI-1 (rat); assay: cell-based or functional assay

Binder | IC50 (read off the curve) [1] | IC50, PAI-1:tPA functional assay [2] | IC50, HT1080 plasminogen activation assay [3] | IC50, PAI-1:tPA functional assay [3] | pIC50, HT1080 plasminogen activation assay [3] | IC50, HT1080 plasminogen activation assay (mouse PAI-1 (mouse)) | pIC50, HT1080 plasminogen activation assay (mouse PAI-1 (mouse)) | IC50, HT1080 plasminogen activation assay (rat PAI-1 (rat)) | IC50, PAI-1:tPA functional assay (rat PAI-1 (rat)) | pIC50, HT1080 plasminogen activation assay (rat PAI-1 (rat))
B1 | 5 nM | – | – | – | – | – | – | – | – | –
B2 | – | 1.02 nM | 22 nM | 3.2 nM | 7.65 | 25 nM | 7.6 | 49 nM | 2.98 nM | 7.31
B3 | 2 nM | – | – | – | – | – | – | – | – | –
